{
  "source": "patent US10464978B2",
  "about": "“Peptides and combination of peptides for use in immunotherapy against ovarian cancer and other cancers” (immatics biotechnologies GmbH, priority 2015, dated 2019)",
  "data": [
    {"molecular_target": "HLA-A*02:01 (Homo sapiens, UniProt P04439, D140Y/D185E/D98H/E176V/E277Q/G131W/G231S/I119V/I121R/I166T/I218V/L300P/L318F/N151K/N90K/P208A/P217A/Q86G/Q94H/R138H/R169H/T345S)", "experiment": "MHC binding assay: UV-ligand exchange with beta2m ELISA (peptide exchange yield)", "conditions": "binding to HLA-A*02:01", "description": "Candidate peptides for T cell based therapies according to the present invention were further tested for their MHC binding capacity (affinity). The individual peptide-MHC complexes were produced by UV-ligand exchange, where a UV-sensitive peptide is cleaved upon UV-irradiation, and exchanged with the peptide of interest as analyzed. Only peptide candidates that can effectively bind and stabilize the peptide-receptive MHC molecules prevent dissociation of the MHC complexes. To determine the yield of the exchange reaction, an ELISA was performed based on the detection of the light chain ([…]) of stabilized MHC complexes. The assay was performed as generally described in Rodenko et al. (Rodenko et al., 2006).\n96 well MAXISorp plates (NUNC) were coated over night with 2 ug/ml streptavidin in PBS at room temperature, washed 4× and blocked for 1 h at 37° C. in 2% BSA containing blocking buffer. […] Peptide-MHC monomers of the UV-exchange reaction were diluted 100 fold in blocking buffer. Samples were incubated for 1h at 37° C., washed four times, incubated with 2 ug/ml HRP conjugated anti-β2m for 1h at 37° C., washed again and detected with TMB solution that is stopped with […]. Absorption was measured at 450 nm. Candidate peptides that show a high exchange yield (preferably higher than 50%, most preferred higher than 75%) are generally preferred for a generation and production of antibodies or fragments thereof, and/or T cell receptors or fragments thereof, as they show sufficient avidity to the MHC molecules and prevent dissociation of the MHC complexes.", "values": [
      {"substance": "187 (RQISIRGIVGV; listed as Homo sapiens) [compound 187]", "Peptide exchange (MHC class I binding score, peptide exchange yield)": "“+++” (≥50 = +++)"},
      {"substance": "189 (ALQRKLPYV; listed as Homo sapiens) [compound 189]", "Peptide exchange (MHC class I binding score, peptide exchange yield)": "“+++” (≥50 = +++)"},
      {"substance": "459 (ALITEVVRL; listed as Homo sapiens) [compound 459]", "Peptide exchange (MHC class I binding score, peptide exchange yield)": "“++” (≥20% = ++)"},
      {"substance": "195 (GLFADLLPRL; listed as Homo sapiens) [compound 195]", "Peptide exchange (MHC class I binding score, peptide exchange yield)": "“+++” (≥50 = +++)"},
      {"substance": "192 (KMLDGASFTL; listed as Homo sapiens) [compound 192]", "Peptide exchange (MHC class I binding score, peptide exchange yield)": "“+++” (≥50 = +++)"},
      {"substance": "486 (AVMESIQGV; listed as Homo sapiens) [compound 486]", "Peptide exchange (MHC class I binding score, peptide exchange yield)": "“+++” (≥50 = +++)"},
      {"substance": "184 (YLMDINGKMWL; listed as Homo sapiens) [compound 184]", "Peptide exchange (MHC class I binding score, peptide exchange yield)": "“+++” (≥50 = +++)"},
      {"substance": "500 (SLMEDQVLQL; listed as Homo sapiens) [compound 500]", "Peptide exchange (MHC class I binding score, peptide exchange yield)": "“+++” (≥50 = +++)"},
      {"substance": "397 (YLFGERLLEC; listed as Homo sapiens) [compound 397]", "Peptide exchange (MHC class I binding score, peptide exchange yield)": "“+++” (≥50 = +++)"},
      {"substance": "306 (ALVNVQIPL; listed as Homo sapiens) [compound 306]", "Peptide exchange (MHC class I binding score, peptide exchange yield)": "“+++” (≥50 = +++)"},
      {"substance": "527 (FLLEPGNLEV; listed as Homo sapiens) [compound 527]", "Peptide exchange (MHC class I binding score, peptide exchange yield)": "“++++” (≥75% = ++++)"},
      {"substance": "511 (FLDPYCSASV; listed as Homo sapiens) [compound 511]", "Peptide exchange (MHC class I binding score, peptide exchange yield)": "“++” (≥20% = ++)"},
      {"substance": "336 (ILLTAIVQV; listed as Homo sapiens) [compound 336]", "Peptide exchange (MHC class I binding score, peptide exchange yield)": "“+++” (≥50 = +++)"},
      {"substance": "107 (FLQPVDDTQHL; listed as Homo sapiens) [compound 107]", "Peptide exchange (MHC class I binding score, peptide exchange yield)": "“+++” (≥50 = +++)"},
      {"substance": "119 (FLYIGDIVSL; listed as Homo sapiens) [compound 119]", "Peptide exchange (MHC class I binding score, peptide exchange yield)": "“++++” (≥75% = ++++)"},
      {"substance": "132 (LLVEQPPLAGV; listed as Homo sapiens) [compound 132]", "Peptide exchange (MHC class I binding score, peptide exchange yield)": "“+++” (≥50 = +++)"},
      {"substance": "590 (SLIEKLWQT; listed as Homo sapiens) [compound 590]", "Peptide exchange (MHC class I binding score, peptide exchange yield)": "“++” (≥20% = ++)"},
      {"substance": "22 (IMEENPGIFAV; listed as Homo sapiens) [compound 22]", "Peptide exchange (MHC class I binding score, peptide exchange yield)": "“+++” (≥50 = +++)"},
      {"substance": "474 (YLDPALELGPRNV; listed as Homo sapiens) [compound 474]", "Peptide exchange (MHC class I binding score, peptide exchange yield)": "“+++” (≥50 = +++)"},
      {"substance": "311 (RLYTGMHTV; listed as Homo sapiens) [compound 311]", "Peptide exchange (MHC class I binding score, peptide exchange yield)": "“+++” (≥50 = +++)"},
      {"substance": "303 (AILPQLFMV; listed as Homo sapiens) [compound 303]", "Peptide exchange (MHC class I binding score, peptide exchange yield)": "“++++” (≥75% = ++++)"},
      {"substance": "383 (ALLELENSVTL; listed as Homo sapiens) [compound 383]", "Peptide exchange (MHC class I binding score, peptide exchange yield)": "“+++” (≥50 = +++)"},
      {"substance": "149 (NLLELFVQL; listed as Homo sapiens) [compound 149]", "Peptide exchange (MHC class I binding score, peptide exchange yield)": "“+++” (≥50 = +++)"},
      {"substance": "387 (ALFQATAEV; listed as Homo sapiens) [compound 387]", "Peptide exchange (MHC class I binding score, peptide exchange yield)": "“++++” (≥75% = ++++)"},
      {"substance": "231 (FLSPQQPPLLL; listed as Homo sapiens) [compound 231]", "Peptide exchange (MHC class I binding score, peptide exchange yield)": "“++” (≥20% = ++)"},
      {"substance": "331 (KVDTVWVNV; listed as Homo sapiens) [compound 331]", "Peptide exchange (MHC class I binding score, peptide exchange yield)": "“+++” (≥50 = +++)"},
      {"substance": "35 (KINDTIYEV; listed as Homo sapiens) [compound 35]", "Peptide exchange (MHC class I binding score, peptide exchange yield)": "“+++” (≥50 = +++)"},
      {"substance": "618 (VLFDSESIGIYV; listed as Homo sapiens) [compound 618]", "Peptide exchange (MHC class I binding score, peptide exchange yield)": "“+++” (≥50 = +++)"},
      {"substance": "47 (ILLSVPLLVV; listed as Homo sapiens) [compound 47]", "Peptide exchange (MHC class I binding score, peptide exchange yield)": "“++” (≥20% = ++)"},
      {"substance": "39 (SVAPNLPAV; listed as Homo sapiens) [compound 39]", "Peptide exchange (MHC class I binding score, peptide exchange yield)": "“+++” (≥50 = +++)"},
      {"substance": "216 (NLWEDPYYL; listed as Homo sapiens) [compound 216]", "Peptide exchange (MHC class I binding score, peptide exchange yield)": "“+++” (≥50 = +++)"},
      {"substance": "167 (KVLEVTEEFGV; listed as Homo sapiens) [compound 167]", "Peptide exchange (MHC class I binding score, peptide exchange yield)": "“+++” (≥50 = +++)"},
      {"substance": "166 (YLNHLEPPV; listed as Homo sapiens) [compound 166]", "Peptide exchange (MHC class I binding score, peptide exchange yield)": "“+++” (≥50 = +++)"},
      {"substance": "391 (YVYPQRLNFV; listed as Homo sapiens) [compound 391]", "Peptide exchange (MHC class I binding score, peptide exchange yield)": "“+++” (≥50 = +++)"},
      {"substance": "622 (RLLGEEVVRVLQA; listed as Homo sapiens) [compound 622]", "Peptide exchange (MHC class I binding score, peptide exchange yield)": "“+++” (≥50 = +++)"},
      {"substance": "101 (ILVGGGALATV; listed as Homo sapiens) [compound 101]", "Peptide exchange (MHC class I binding score, peptide exchange yield)": "“+++” (≥50 = +++)"},
      {"substance": "144 (YIMEPSIFNTL; listed as Homo sapiens) [compound 144]", "Peptide exchange (MHC class I binding score, peptide exchange yield)": "“+++” (≥50 = +++)"},
      {"substance": "95 (SVIPQIQKV; listed as Homo sapiens) [compound 95]", "Peptide exchange (MHC class I binding score, peptide exchange yield)": "“+++” (≥50 = +++)"},
      {"substance": "467 (FLAKDFNFL; listed as Homo sapiens) [compound 467]", "Peptide exchange (MHC class I binding score, peptide exchange yield)": "“+++” (≥50 = +++)"},
      {"substance": "48 (ALAELYEDEV; listed as Homo sapiens) [compound 48]", "Peptide exchange (MHC class I binding score, peptide exchange yield)": "“+++” (≥50 = +++)"},
      {"substance": "171 (LLLPLQILL; listed as Homo sapiens) [compound 171]", "Peptide exchange (MHC class I binding score, peptide exchange yield)": "“+++” (≥50 = +++)"},
      {"substance": "34 (ILVEADSLWVV; listed as Homo sapiens) [compound 34]", "Peptide exchange (MHC class I binding score, peptide exchange yield)": "“+++” (≥50 = +++)"},
      {"substance": "507 (KLIDDQDISISL; listed as Homo sapiens) [compound 507]", "Peptide exchange (MHC class I binding score, peptide exchange yield)": "“+++” (≥50 = +++)"},
      {"substance": "222 (NLIENVQRL; listed as Homo sapiens) [compound 222]", "Peptide exchange (MHC class I binding score, peptide exchange yield)": "“++” (≥20% = ++)"},
      {"substance": "78 (SLFSSLEPQIQPV; listed as Homo sapiens) [compound 78]", "Peptide exchange (MHC class I binding score, peptide exchange yield)": "“+++” (≥50 = +++)"},
      {"substance": "558 (GLLENIPRV; listed as Homo sapiens) [compound 558]", "Peptide exchange (MHC class I binding score, peptide exchange yield)": "“+++” (≥50 = +++)"},
      {"substance": "594 (IMLKGDNITL; listed as Homo sapiens) [compound 594]", "Peptide exchange (MHC class I binding score, peptide exchange yield)": "“+++” (≥50 = +++)"},
      {"substance": "337 (HLLSELEAAPYL; listed as Homo sapiens) [compound 337]", "Peptide exchange (MHC class I binding score, peptide exchange yield)": "“++++” (≥75% = ++++)"},
      {"substance": "163 (ALDEMGDLLQL; listed as Homo sapiens) [compound 163]", "Peptide exchange (MHC class I binding score, peptide exchange yield)": "“+++” (≥50 = +++)"},
      {"substance": "496 (FLVEKQPPQV; listed as Homo sapiens) [compound 496]", "Peptide exchange (MHC class I binding score, peptide exchange yield)": "“+++” (≥50 = +++)"}
    ]}
  ]
}
